# Laboratory results reported in US20260226095A1.
# Experiments:
# [1] = biological target: human recombinant TNFα (human) (UniProt P01375); experiment: SPR, Biacore T200, standard kinetics, antigen immobilized on CM5 chip
# [2] = biological target: human recombinant TNFα (human) (UniProt P01375); experiment: ELISA on human recombinant TNFα, anti-His tag and HRP anti-mouse IgG
# Sequence of human recombinant TNFα (human) (P01375 77-233 limits assumed): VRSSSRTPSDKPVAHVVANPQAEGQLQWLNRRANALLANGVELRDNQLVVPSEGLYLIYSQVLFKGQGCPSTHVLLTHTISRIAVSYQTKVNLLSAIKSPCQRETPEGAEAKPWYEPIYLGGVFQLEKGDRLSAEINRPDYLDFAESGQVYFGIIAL
Kd [1] [nM],RUmax [1] [RU],EC50 (read off the curve) [2] [mg/L],Substance
4.3,12,0.09,scFv Ab3 (Adalimumab) of synthesis
9.3,–,–,scFv Ab3 RREF
